Paper PMC10221975 (Pharmaceutics, 2023)

Target: the molecule itself
Test: dynamic light scattering; after irradiation of the N2O-saturated solution with 0.1 M NaN3 (oxidation by N3 radicals), 70 μM protein, 25 °C; the species seen are held by covalent bonds (dityrosine)

B1: papain (enzyme, UniProt P00784 134-345, looked up)
chain: IPEYVDWRQKGAVTPVKNQGSCGSCWAFSAVVTIEGIIKIRTGNLNEYSEQELLDCDRRSYGCNGGYPWSALQLVAQYGIHYRNTYPYEGVQRYCRSREKGPYAAKTDGVRQVQPYNEGALLYSIANQPVSVVLEAAGKDFQLYRGGIFVGPCGNKVDHAVAAVGYGPNYILIKNSWGTGWGENGYIRIKRGTGNSYGVCGLYTSSFYPVKN
notes: papain; source: bought: Roth (8933.1), used as received
stoichiometry N: 2
